This data set in a line: protein stability index of a GFP-peptide fusion (GPS, HEK-293T) (PSI 1-6); higher = more stable.
Where [1] appears, read: treatment: DMSO, c terminus: a fixed tail appended.
[2] abbreviates: treatment: MLN4924 1 uM, 8 h, c terminus: a fixed tail appended.

± gives the standard deviation.
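Further: 24-mer peptide tiles fused after GFP, lentivirally expressed, FACS-sorted into six equal bins by GFP/DsRed ratio, decoded by Illumina sequencing, PSI is the read-weighted mean bin number.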

In the case of THLPKADIFALALTVVCAAGAEPL [WEE1], the protein stability index runs as follows: under setting [1], 3.6 ± 0.35; under setting [2], 3.31 ± 0.26.
On the same counts, the results for TIAAIDGLALGGGLELALACDIRV [AUH] are 2.39 ± 1.2 and 2.33 ± 0.59.
In the same order, the values of TIMSLASLLFVVMFIPETKGCSLE [SLC2A12] are 3.37 ± 0.21 and 3.33 ± 0.83.
On the same counts, the results for TKGEEISVYVKLAGEREDLWAGSK [MIA2] are 3.36 ± 0.6 and 3.83 ± 0.19.
As for TKSPCESNNKKNDEMQEVPNRVLA [SPANXN3], the protein stability index is 5.22 ± 0.2 under setting [1] and 5.33 ± 0.19 under setting [2].
Consider TLEELLPPNTRVLRVLPNLPCVVQ [PYCR3], for which the protein stability index is, setting by setting: under setting [1], 2.28 ± 0.28; under setting [2], 2.1 ± 0.38.
In the same order, the values of TLKIRNSNFYTVAVTSLSSQIQYM [TMEM106C] are 2.23 ± 0.37 and 2.13 ± 0.36.
In the same order, the values of TLLPWNFFMTATQYFTNRLDMSQN [SLC29A1] are 2.9 ± 0.49 and 2.85 ± 0.37.
Take TNALIGGPMPMSMPNVMTGTMGMA [CLINT1]: the protein stability index by setting is: under setting [1], 3 ± 0.16; under setting [2], 3.03 ± 0.18.
In the same order, the values of TNEKMLKAVFGKHGPISEVLLIKD [RBMY1A1] are 2.82 ± 0.24 and 2.96 ± 0.15.
On the same counts, the results for TNTLTRIAENGVSERDSEAAKQNH [EHMT1] are 5.41 ± 0.18 and 5.26 ± 0.29.
TPFLTNHGAHKAEKKLFECLTCGK [ZNF263]: the protein stability index reads like this: under setting [1], 3.32 ± 0.34; under setting [2], 3.53 ± 0.67.
On the same counts, the results for TPLIQQRARDSPEPGAGLGIGDMA [PSD2] are 4.55 ± 0.24 and 4.37 ± 0.12.
On the same counts, the results for TPRGPDPALLEATGGAAGAGGAGR [KCTD13] are 5.13 ± 0.23 and 5.18 ± 0.21.
On the same counts, the results for TRGHAISILFGFWTSFICDTYIVL [SMIM2] are 2.73 ± 0.4 and 2.78 ± 0.46.
With TRHLKRLALMIQSSGNTVLLLILC [TMEM192], the protein stability index under setting [1] was determined as 2.55 ± 0.41 and the protein stability index under setting [2] turned out to be 2.35 ± 0.29.
As for TRKHAHHCHKRRTRSCSSASSRSQ [CLK3], the protein stability index runs as follows: under setting [1], 4.65 ± 0.2; under setting [2], 4.82 ± 0.19.
On the same counts, the results for TRPSGNNGNRRRRKLRKTVNGDGS [PHTF1] are 4.83 ± 0.2 and 5.03 ± 0.12.
In the same order, the values of TRRRAVGWWKRLFTLKEEKPKMYF [ARL6IP1] are 2.25 ± 0.39 and 2.11 ± 0.32.
On the same counts, the results for TRVNLSSDTESTDLPSSTPVANSG [DLC1] are 5.05 ± 0.1 and 5.26 ± 0.11.
On to TRWLNSGRGDEASEEGQNGSSPKS [ADD1], for which the protein stability index is 5.4 ± 0.12 under setting [1] and 5.44 ± 0.24 under setting [2].
In the same order, the values of TSEQAPSSAPRDVQARMLSSTTIL [PTPRD] are 4.08 ± 0.15 and 4.03 ± 0.38.
On the same counts, the results for TSGQVVAVKKFVESEDDPVVKKIA [CDKL4] are 4.66 ± 0.06 and 4.82 ± 0.35.
On the same counts, the results for TSLTALSLASASPPLSGRSTPKLT [PPFIA4] are 4.17 ± 0.08 and 4.13 ± 0.12.
On to TTKGTSEMSEKRGPTSSNPRKRHR [MLH1], for which the protein stability index is 5.14 ± 0.41 under setting [1] and 5.04 ± 0.079 under setting [2].
On the same counts, the results for TTLSFYGNSISISALQSLLQHLIG [PRAME] are 2.82 ± 0.46 and 2.82 ± 0.48.
On the same counts, the results for TTNPHTSASHRPCVNGDVDKPSEP [SMG5] are 5.15 ± 0.23 and 5.12 ± 0.14.
As to TTTLEGSPSVPCIFCEEHFPVAEQ [ZNF277], the protein stability index reads like this: under setting [1], 4.17 ± 0.27; under setting [2], 4.32 ± 0.26.
With TTTVCLVAAALRYLQIFATRRSCI [FAM189A2], the protein stability index is 2.98 ± 0.42 under setting [1] and 2.89 ± 0.25 under setting [2].
In the same order, the values of TVAGSLNDFSYLHTNCFELSIYVG [CPXM2] are 2.79 ± 0.78 and 2.55 ± 0.7.
On the same counts, the results for TVASMMHRQETVDCLKKFNARRKL [CAMK2D] are 3.17 ± 0.15 and 3.73 ± 0.72.
TVPSAATSQPTPSQHSAHTSSQP [CCDC6] returned a protein stability index (treatment: DMSO, c terminus: native) of 5.42 ± 0.23 and a protein stability index (treatment: MLN4924 1 uM, 8 h, c terminus: native) of 5.33 ± 0.15.
Take TVYNEMDKNRCELLSFLLLMDYIG [EDNRA]: the protein stability index is, setting by setting: under setting [1], 2.09 ± 0.34; under setting [2], 2.17 ± 0.5.
On to TYWEHWTSQGQVRMRLFGQRCQKC [RTP4], for which the protein stability index is 2.33 ± 0.43 under setting [1] and 2.72 ± 0.57 under setting [2].
In the same order, the values of VAIFGPPNTYYEGGYFKARLKFPI [CDC34] are 2.24 ± 0.41 and 2.58 ± 0.3.
As for VATTARHSAAYRADPLRVSSRDKL [FUNDC2], the protein stability index is, setting by setting: under setting [1], 4.1 ± 0.096; under setting [2], 4.1 ± 0.19.
In the same order, the values of VCDLQSLLGYTPEELHAMLDVKPD [ETS1] are 4.04 ± 0.21 and 4.07 ± 0.12.
With VCEEQKCEEEVFPLAMNYLDRFLS [CCND1], the protein stability index is, setting by setting: under setting [1], 3.59 ± 0.079; under setting [2], 3.8 ± 0.18.
With VCSDKRIPGFKFDNSLINQIENLN [LOXL2], the protein stability index reads like this: under setting [1], 2.56 ± 0.26; under setting [2], 3.01 ± 0.25.
On the same counts, the results for VDSPKNFNIAGTVVKYRRPMDVYE [ADAMTSL2] are 3.44 ± 0.36 and 3.49 ± 0.54.
Take VEILDLNDNSPSFATPEREMRISE [PCDHGC5]: the protein stability index is 4.08 ± 0.31 under setting [1] and 4.2 ± 0.28 under setting [2].
With VEVISDTLSKPSPMPVSQECFETL [CHGA], the protein stability index is 3.85 ± 0.092 under setting [1] and 3.87 ± 0.25 under setting [2].
On the same counts, the results for VFDALESDHEMREEEKLKAEEIRI [KCNK9] are 5.27 ± 0.21 and 5.23 ± 0.17.
On the same counts, the results for VGFIMAGTPMALIVISYIHVAAAV [OR3A1] are 3.27 ± 0.35 and 2.87 ± 0.32.
On the same counts, the results for VGVATARAPLHSVGYTALVGSDAE [SPSB4] are 4.35 ± 0.19 and 4.38 ± 0.3.
As to VHASGWNKILVPLVLLRQMLLELT [BCL2L13], the protein stability index was 2.2 ± 0.3 under setting [1] and 2.3 ± 0.24 under setting [2].
On the same counts, the results for VIATATVYFKRFYARYSLKSIDPV [CCNC] are 2.8 ± 0.74 and 2.8 ± 0.64.
In the same order, the values of VIGFAKMIPGFRDLTSEDQIVLLK [VDR] are 2.36 ± 0.51 and 2.42 ± 0.46.
In the same order, the values of VINPMLNPIIYSFRNPDVQSAIWR [OR3A1] are 2.06 ± 0.51 and 2.24 ± 0.19.
On to VISPMYQLHKPLAEGTPRSNHSAQ [IKZF1], for which the protein stability index is, setting by setting: under setting [1], 3.76 ± 0.32; under setting [2], 4.06 ± 0.31.
On the same counts, the results for VITKHNDDEQYAWESSAGGSFTVR [HSP90AB1] are 3.98 ± 0.2 and 4.16 ± 0.21.
On the same counts, the results for VKSKAKKTVDKHSDEYKIRRERNN [CEBPB] are 4.78 ± 0.39 and 4.79 ± 0.2.
In the same order, the values of VMFKEPIEILPNVCYTACATLKGP [BTBD1] are 2.12 ± 0.22 and 2.14 ± 0.26.
Regarding VPEKRDSGMTEVERTYSANCSDFL [SPATS1], the protein stability index reads like this: under setting [1], 4.7 ± 0.17; under setting [2], 4.89 ± 0.14.
In the same order, the values of VPGTQVGQGGKLWDPSVQSCKEGL [ZNF263] are 4.12 ± 0.12 and 4.26 ± 0.18.
In the same order, the values of VPTPLTNVQILLPVGEPVTNVRLQ [FCHO1] are 3.35 ± 0.34 and 3.36 ± 0.33.
Turning to VPWESDIWDINNQICTVKDIKAEP [ATF6], the protein stability index was determined as 4.02 ± 0.24 under setting [1] and 3.9 ± 0.25 under setting [2].
In the case of VQLHNGTKYKKFPHWLDKWMLTRK [STEAP1], the protein stability index is 2.36 ± 0.044 under setting [1] and 2.19 ± 0.096 under setting [2].
On the same counts, the results for VQLIQDTRIHILPSMNPDGYEVAA [CPN1] are 2.55 ± 0.23 and 2.57 ± 0.33.
On the same counts, the results for VQLIWVVSQLYPESIVPIPSSNEE [INTS4] are 3.07 ± 0.45 and 2.81 ± 1.1.
On the same counts, the results for VQLSQIQGLIGSVEEQLAQLRCEM [KRT17] are 3.04 ± 0.36 and 2.79 ± 0.32.
Turning to VRKSRDKAKRRNQEMQQKLVELSA [CEBPD], the protein stability index by setting is: under setting [1], 3.78 ± 0.34; under setting [2], 3.72 ± 0.43.
In the same order, the values of VRKWRVKSALGAMGQWQLEVGDPA [DPCD] are 2.46 ± 0.26 and 2.57 ± 0.21.
Turning to VSASGKEMDWAQMACHRCLVYLGD [SMG5], the protein stability index worked out at 2.1 ± 0.36 under setting [1] and 2.21 ± 0.52 under setting [2].
On the same counts, the results for VSEDFNKMNFIKTYPAHQNRVSAI [WDFY1] are 2.9 ± 0.21 and 3.03 ± 0.46.
On the same counts, the results for VSRGPGVNVGTTALWKHLKSMHRE [ZBED2] are 3.22 ± 0.14 and 3.3 ± 0.32.
On to VSSEDSFVCQCFEGYILREDGKTC [MATN2], for which the protein stability index was determined as 3.04 ± 0.26 under setting [1] and 3.08 ± 0.57 under setting [2].
In the same order, the values of VTGLNPKTKYILLMDIVPADDHRY [TBX5] are 2.63 ± 0.44 and 1.95 ± 0.53.
Turning to VTLARQAGEVVCEAIKNEMNVMLK [IMPA1], the protein stability index runs as follows: under setting [1], 2.44 ± 0.4; under setting [2], 2.44 ± 0.45.
On to VTNHNIRLFEDVRSWMFRRGPLNS [TRIM43], for which the protein stability index is, setting by setting: under setting [1], 2.56 ± 0.45; under setting [2], 2.49 ± 0.18.
In the same order, the values of VTSQERHCLQQRRKSVPGPGNRTC [ADAMTSL2] are 4.92 ± 0.42 and 4.824 ± 0.006.
In the same order, the values of VTVSDASWVSELLWSLFVPFTVYQ [AUP1] are 2.87 ± 0.55 and 3.14 ± 0.47.

(Values after the supplement of paper PMC10567573.)
